This data set can be described thus: amyloid nucleation score (Sup35N fusion, yeast selection) (log enrichment); library NNK2; higher = more nucleation; inactive = no reads after selection. The method in brief:
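Libraries of peptides of 20 random codons fused to Sup35N were expressed in psi-negative yeast and induced 24 hours with 100 μM copper sulfate. Selection was 7 days at 30°C on medium lacking adenine and uracil, and plasmid inserts were Illumina-sequenced before and after selection. Nucleation score is the DiMSum log enrichment of output over input reads, centred on the mode score of non-aggregating sequences, and sequences with under 100 input reads were left out.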

± gives the uncertainty stated by the source.

As to IRSGIIPVTVGPYHGALYMV, the amyloid nucleation score came out at 0.662 ± 0.74. Then VCFGIKWSMLCWYFMDGGQQ, with 2.05 ± 0.16; and TDRLRFIYSGGVEFFVPVLL, with “inactive”. Then GDYYFV, with -1.19 ± 1. The value for HFYHLDTSHSGWDLKSSY was 4.68 ± 0.075; that for SGVIHSVFVWKCLITGGM was -0.711 ± 0.38; that for TLFSLREGLFNGIWTVSLSW was -1.09 ± 1.1. In turn, VGKMVNVDGRSPSCWSVWH showed an amyloid nucleation score of 0.47 ± 0.13. RLVYGLFAYKF had an amyloid nucleation score of 5.29 ± 0.037. Then KGNEY, with -0.757 ± 0.64; and CKTLVSGGL, with -0.344 ± 0.41. Then CDHQRLMTYLVPAGYMPDTM, with -0.201 ± 0.62; and SVVGFTPQKL, with -0.049 ± 0.34.

Substance WPKSAILIHCRVANGLCRFV returned an amyloid nucleation score of 6.586 ± 0.046. The value for FNGVLDWEWHGVAFAWAGLV was 0.399 ± 0.65. The value for RLLLLPTSLLYSKSWCYSLL was -0.622 ± 0.27; that for MYLCTGFASSFIKSHHITWR was -0.098 ± 0.43.

The substance IMFICTGRSLTHTD had an amyloid nucleation score of -0.642 ± 1.1.

With VRLNDWMVHLND, the amyloid nucleation score stood at 0.752 ± 0.35.

The substance ALDGVRNSEMGKRVSGVCEY came in with an amyloid nucleation score of 0.89 ± 0.28. Turning to VYTCSIFYLGLVYRHISDSS, the amyloid nucleation score result is “inactive”.

For QLGRVSHRVTDRIFWKAYPA, the amyloid nucleation score amounted to 0.353 ± 0.35.

Consider FKAYHSGKWTYGHITQRGRI, for which the amyloid nucleation score result was “inactive”. Then LLEFTLLTISQRPYTWNTVE, with 0.862 ± 0.17; and HVRMK, with 4.79 ± 0.1; and VKNFYVNIFQCGIPPPFKEM, with 7.668 ± 0.026. For IRFGLVWRLKLGFMLGLNSA, the amyloid nucleation score is 4.98 ± 0.095. As to PPRGFFVAWIVDFRGAGLMG, the amyloid nucleation score was -0.743 ± 0.48. Then GYIGGVSWNISVVVCSS, with 2.71 ± 0.11; and GGVYASKYLCGYIKLSLKAS, with -0.154 ± 0.3. The value for DWRLARLSSVRFLNGIDCDF was 0.015 ± 0.56; that for LKYVLARCFRKCWYVLWTSA was -0.451 ± 0.54. YGRIR showed an amyloid nucleation score of -0.131 ± 0.63. For the substance LLFARK, the amyloid nucleation score is -0.038 ± 1.1.

In turn, CRSSGFRFTLRKWCWNVNEC showed an amyloid nucleation score of -0.7 ± 0.76. The value for EKLWIMLTLICNIVRSPSYK was -0.515 ± 1.1; that for DSISNISDPCGFLGQESWVN was 4.83 ± 0.063; that for WVSVRKRHWTTHWLGVGVPN was 0.611 ± 0.66. The value for GSHKK was -1 ± 1.1; that for FCTHSQARDQVNSNHTMALL was 2.84 ± 0.064.

ILLVSATHYSQLNKGRPNDL showed an amyloid nucleation score of 1.43 ± 0.35. The substance CRSAVRRILGFNLSRVFSWF registered an amyloid nucleation score of -0.417 ± 0.64. The value for WWETSIFFWEGIYT was -0.22 ± 0.8; that for EVWYSPDLTLLVYPTPR was 1.46 ± 0.4.

Substance SGFSVTNCGN registered an amyloid nucleation score of -0.155 ± 0.26. The value for VLSSRSEDTGQACEVIICVV was 0.693 ± 0.34. The value for IWCSTGTFWLGGRLITLWRW was 1.02 ± 0.28; that for VSKMGYRDALVAREGLCGVV was 0.072 ± 0.38.

Turning to MTRTFYCFQGRHLDSWDQGE, the amyloid nucleation score is 0.371 ± 0.8. Then PVRCMIAHNCLIFWLVWTVV, with -0.154 ± 0.25; and VNAHLWYIFRVWDVKDRVVD, with -0.315 ± 0.74. The value for LAIVQ was -0.256 ± 0.42.

Take SLLWFKTVSLLRYNQF: the amyloid nucleation score is -0.363 ± 0.65. Then KRILS, with -0.13 ± 0.34; and SQVLLGQCCMNHKDLSFVWI, with 0.708 ± 0.34; and WTWTYARDVHTTLN, with 1.13 ± 0.41. The value for KRRSNSTILGPINSPRVAEG was -0.258 ± 0.42; that for SNGMRNCKVCEFLLRLYASY was -1.15 ± 0.55. Then LRSSKKCYTILYVSYTLK, with -1.15 ± 1.1. The substance RHYLLFGWIVSPKVELFSPS displayed an amyloid nucleation score of 0.895 ± 0.81. As for VRYGDRSGGLYLKRYFMLSF, the amyloid nucleation score entry is “inactive”.

In turn, GGSKLVLLFE gave an amyloid nucleation score of -0.81 ± 0.76.

VSARGSWFLTTSAAC showed an amyloid nucleation score of -1.29 ± 1.1. The value for QVSFEFNRLMGCMLKMTMMT was -0.308 ± 0.49; that for IAMIVIQYTIRHCGSAEAVG was 2.34 ± 0.19; that for TDLSLWNTILRVAG was 0.05 ± 0.31. Turning to WFHVAAYAFRGTCYHLGGVL, the amyloid nucleation score stood at 4.39 ± 0.096. Then VAVVFTKYSSRTYLGVGSVG, with 4.21 ± 0.07.

Take PYTFQYY: the amyloid nucleation score is -0.549 ± 0.26. The value for RYPFFEMVRSTMQSMIENQ was 0.612 ± 0.3.

Regarding LYGMF, the amyloid nucleation score was -0.261 ± 0.63. The value for WYVLAWDPPLSFMCLGDV was 0.666 ± 0.53; that for TMRYMVQMLRFEQSGLGQWV was 4.19 ± 0.076. Then GMVEAR, with 0.095 ± 0.46. Then AVRVGGTGFRVRS, with -0.121 ± 0.48; and MSFYFNFIYYFYSYFTFEWF, with “inactive”; and SCRIFFE, with -0.062 ± 0.65. With GLVFRS, the amyloid nucleation score entry is “inactive”. The value for VRLNMFFSGEFCQGMQLWVS was “inactive”. Then DSSYVSVHRFCNFGYLIFCF, with 7.734 ± 0.064. The value for RFPLGCKMSVTGPFHMTHHA was 1.29 ± 0.38.

The substance YREHQKVRFSSLISSIGVLM came in with an amyloid nucleation score of -0.004 ± 0.49. GVGSCTRQLWRISRSTPLKL displayed an amyloid nucleation score of 2.65 ± 0.069. For SIIVLRLLY, the amyloid nucleation score amounted to 0.523 ± 0.51.

In the case of RGYFPFYNR, the amyloid nucleation score is -0.907 ± 0.65.

As for SFNWNC, the amyloid nucleation score is -1.15 ± 0.76. The value for FRKWNSS was 4.08 ± 0.072; that for FDQLPRVFNYRLAILWAVYR was -0.627 ± 0.79. Then IPEVESIGMGWGWREISGEC, with 1.42 ± 0.41. The value for VFEVDLFWRSKFNSCLLPFR was -0.95 ± 0.36; that for ITLRRLTVITENPLGWNHIT was 0.499 ± 0.36. Take LIFCGECTILNTGGGNRAWV: the amyloid nucleation score amounted to 8.361 ± 0.03. The value for NKANLLYSPLLCLMAVHRMY was “inactive”. Then TMFEGFRCLRR, with 0.923 ± 0.81; and RAYFTSKMCIRQTWTEKILY, with 5.13 ± 0.052; and CYGLYPEDLLCMYGKLDLPR, with 0.229 ± 0.61. The value for LFIEGNVSWGYACLHIRSVG was 0.039 ± 0.79. Turning to WASWRSYSMWLDLLCFRSRG, the amyloid nucleation score stood at 0.155 ± 0.33. The value for CKALCIKIWVERVTC was 2.31 ± 0.16; that for CYYVDIVVSHQRTTSVMVGD was 0.698 ± 0.29.

In turn, RADTRFVAMGFGCRNVKPAV returned an amyloid nucleation score of -0.296 ± 0.54.

For the substance CTEFSLTDCSSG, the amyloid nucleation score result is “inactive”. The value for YDSDFFFHNLGDEPASVGFR was “inactive”; that for SLMETGYTPSRERMMHHM was -0.095 ± 0.33. The value for IVAFARVITLMRLLADGSTV was 0.608 ± 0.54; that for SGFLDLPVYPVYNHNRTKMI was 0.267 ± 0.57. Then TCTNLSCTGWKNGVCVCM, with 8.536 ± 0.057; and NPVINT, with -0.271 ± 0.46; and DCPLFQRLYRQS, with -0.211 ± 0.22.

Take SISVAVRSCQVTVPGKCDCA: the amyloid nucleation score stood at 7.756 ± 0.035. Then CNIRAYDIISTLMHFVLCH, with -1.67 ± 0.55; and VFLVCYTYLWTFKSCTYFMN, with -1.88 ± 0.78; and FMMHRVSTRFASKNAS, with -0.072 ± 1.1.

With ANGLVPYVTFLVLYALHTGT, the amyloid nucleation score stood at 1.41 ± 0.38. GIHCGR came in with an amyloid nucleation score of 3.24 ± 0.06. Consider IIRMNLAGDGVESWGWDRLS, for which the amyloid nucleation score was 1.12 ± 0.45. Then AFIRPIVSLVVLSQGV, with 0.827 ± 0.6. Substance RHSCFICFNVLVICGLNLSL had an amyloid nucleation score of 5.927 ± 0.037.

For SNYGCDQWWNITWFE, the amyloid nucleation score was -0.791 ± 0.61. Then LLPRDALFPPIFVIISECVF, with -0.063 ± 0.45.

Consider NSRLMMCEIPERCM, for which the amyloid nucleation score was 0.512 ± 0.28. The value for DSDNIPNHTYMILFGIQFHS was -0.311 ± 0.65; that for SELLGLSIKAIYICCMSQME was -0.9 ± 0.61.

Turning to IYSGETYKTWLFHGINV, the amyloid nucleation score is -1.4 ± 0.62. The value for VDYYDIQCL was 0.649 ± 0.36; that for QHRMDTDTNYFDKDVGHFIS was -0.984 ± 0.32; that for GFVDTTLCMVNLFYGRKSHL was 7.862 ± 0.047. Then RNGVNRLELGFLIETLHNAC, with 4.622 ± 0.038; and WTWVLMNIL, with -1.76 ± 0.64; and YGNPRIFIESMKYEVGIRVS, with “inactive”.

For the substance LGHFSFD, the amyloid nucleation score result was “inactive”. Then CSFRAFLWCILGGGENFNSS, with 2.91 ± 0.065; and SLVENRVGISDVWKVSTLVG, with 0.042 ± 0.29; and LFGSKVHSSWRPSCLFTSAV, with 0.377 ± 0.33.

The substance GDIMKCSRCSATLGEPMKRC gave an amyloid nucleation score of 0.218 ± 1.1. Then CIMMYVT, with 0.259 ± 0.17. The value for INRPYNIVGRRSSPSHIVTF was “inactive”; that for QSSYVATWVTLNLGCYFDWK was 0.284 ± 1.1.

With RINKGISGRGSD, the amyloid nucleation score is 0.582 ± 0.57. Then MQLCYKYRTVVTSSLDPEYM, with -0.066 ± 0.74.

The values are drawn from the supplement of paper PMC12042874.
